Measurements reported in US20170283495A1 (published 2017).

Assays:
[1] = biological target: T1, K18-biotin hepcidin-25 (biotin on K18); experiment: Biacore (SPR); 5 µg/ml 583
T1 peptide: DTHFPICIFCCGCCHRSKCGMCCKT

[2] = biological target: T2, NT-biotin hepcidin-25 (NT-biotin (biotin label; NT is not spelled out, taken as the N-terminus)); experiment: Biacore (SPR); 5 µg/ml 583
T2 peptide: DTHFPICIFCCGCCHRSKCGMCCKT

Ka [1]: 1.34e+11 M⁻¹
Ka [2]: 5.47e+10 M⁻¹
B1: murine anti-hepcidin MAb 583 (antibody, V domains shown)
VH: QIQLVQSGPELKKPGETVKISCKASGYTFTNYGMNWVKQAPGKGLKWMGWINTYTGEPTYADDFKGRFAFSLETSASTAYLQINNLKNEDTATYFCTTYATSWYWGQGTTLTVSS
VL: DIVLTQSPASLAVSLGQRATISCRASESVDSYGNSFMHWYQQKPGQPPKLLIYRASNLESGIPARFSGSGSRTDFTLTINPVEADDVATYYCQQSNEDLTFGGGTKLEIK
